From PMC3032006
Read-outs that look alike come from different tables or passages of the source.

Tests used:
Assay in all cases: AUC
[1] = molecular target: unmyristoylated HIV-1 matrix-capsid, myr(−)MACA (HIV-1 (pNL4-3 isolate))
[2] = molecular target: unmyristoylated HIV-1 matrix-capsid, myr(−)MACA (HIV-1 (pNL4-3 isolate)); remark: listed apart in the source
[3] = molecular target: unmyristoylated HIV-1 matrix-capsid, myr(−)MACA (HIV-1 (pNL4-3 isolate)); remark: listed apart in the source
[4] = molecular target: myristoylated HIV-1 matrix-capsid, myr(+)MACA (HIV-1 (pNL4-3 isolate))
[5] = molecular target: myristoylated HIV-1 matrix-capsid, myr(+)MACA (HIV-1 (pNL4-3 isolate)); remark: listed apart in the source
[6] = molecular target: myristoylated HIV-1 matrix-capsid, myr(+)MACA (HIV-1 (pNL4-3 isolate)); remark: listed apart in the source
[7] = molecular target: myristoylated HIV-1 matrix-capsid, myr(+)MACA (HIV-1 (pNL4-3 isolate)); remark: listed apart in the source
[8] = molecular target: myristoylated HIV-1 matrix protein, myr(+)MA (HIV-1)
[9] = molecular target: myristoylated HIV-1 matrix protein, myr(+)MA (HIV-1); remark: listed apart in the source
[10] = molecular target: myristoylated HIV-1 matrix protein, myr(+)MA (HIV-1); remark: listed apart in the source
[11] = molecular target: myr(+)MACA-W184A/M185A (HIV-1 (pNL4-3 isolate))
[12] = molecular target: myr(+)MACA-W184A/M185A (HIV-1 (pNL4-3 isolate)); remark: listed apart in the source

With “unmyristoylated HIV-1 matrix-capsid, myr(−)MACA (domain or fragment)” the stoichiometry N [1] was 2, the Ka [2] was 110000 M⁻¹ and the stoichiometry N [2] was 2. For the same substance, the Ka [3] was 33000 M⁻¹ and the stoichiometry N [3] was 2.

Work on “myristoylated HIV-1 matrix-capsid, myr(+)MACA (domain or fragment)” yielded a Ka [4] of 33000 M⁻¹, a fraction in the 4.3S (major) peak of c(s) [4] of 70% and a stoichiometry N [4] of 2. The stoichiometry N [5] was 3, the stoichiometry N [6] was 3 and the stoichiometry N [7] was 3.

With “myristoylated HIV-1 matrix protein, myr(+)MA (natural protein)” the fraction in the 2.4S (trimer) peak of c(s) [8] was 30%, the stoichiometry N [8] was 3 and the stoichiometry N [9] was 3. It also gave a stoichiometry N [10] of 3.

“myr(+)MACA-W184A/M185A (domain or fragment)” gave a stoichiometry N [11] of 2 and a stoichiometry N [12] of 2.
